Results taken from patent US20230050846A1, “TREATMENT OF HEPATIC AND CARDIOVASCULAR DISORDERS” (LIFESEARCH, priority 2019, published 2023).

Target: cell surface F1Fo-ATPase (human)
Assay: cell-based or functional assay

HDL endocytosis by HepG2 cells (HDL-Alexa568 uptake), apoA-I 10 µg/mL, versus non-stimulated cells: 45%
Substance: apoA-I purified from human plasma (from UniProt P02647 25-267) (ligand)
